Measurements taken from the supplement of paper PMC10065799, “High-throughput profiling of sequence recognition by tyrosine kinases and SH2 domains using bacterial peptide display” (eLife, 2023).

These sequences were tested against MERTK (UniProt Q12866) (assay: phosphorylation enrichment, bacterial display (enrichment ratio); higher = better substrate or ligand; peptides without Tyr show the background).
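Also: 11-residue human phosphosite peptides and single-mutation variants displayed on the E. coli surface, counted by deep sequencing, each peptide's frequency after selection divided by its frequency in the unselected input library; frequency after pTyr selection over input frequency; kinase dosed for 20-30% of maximal phosphorylation in three min.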

MERTK, sequence (Q12866 whole entry, looked up): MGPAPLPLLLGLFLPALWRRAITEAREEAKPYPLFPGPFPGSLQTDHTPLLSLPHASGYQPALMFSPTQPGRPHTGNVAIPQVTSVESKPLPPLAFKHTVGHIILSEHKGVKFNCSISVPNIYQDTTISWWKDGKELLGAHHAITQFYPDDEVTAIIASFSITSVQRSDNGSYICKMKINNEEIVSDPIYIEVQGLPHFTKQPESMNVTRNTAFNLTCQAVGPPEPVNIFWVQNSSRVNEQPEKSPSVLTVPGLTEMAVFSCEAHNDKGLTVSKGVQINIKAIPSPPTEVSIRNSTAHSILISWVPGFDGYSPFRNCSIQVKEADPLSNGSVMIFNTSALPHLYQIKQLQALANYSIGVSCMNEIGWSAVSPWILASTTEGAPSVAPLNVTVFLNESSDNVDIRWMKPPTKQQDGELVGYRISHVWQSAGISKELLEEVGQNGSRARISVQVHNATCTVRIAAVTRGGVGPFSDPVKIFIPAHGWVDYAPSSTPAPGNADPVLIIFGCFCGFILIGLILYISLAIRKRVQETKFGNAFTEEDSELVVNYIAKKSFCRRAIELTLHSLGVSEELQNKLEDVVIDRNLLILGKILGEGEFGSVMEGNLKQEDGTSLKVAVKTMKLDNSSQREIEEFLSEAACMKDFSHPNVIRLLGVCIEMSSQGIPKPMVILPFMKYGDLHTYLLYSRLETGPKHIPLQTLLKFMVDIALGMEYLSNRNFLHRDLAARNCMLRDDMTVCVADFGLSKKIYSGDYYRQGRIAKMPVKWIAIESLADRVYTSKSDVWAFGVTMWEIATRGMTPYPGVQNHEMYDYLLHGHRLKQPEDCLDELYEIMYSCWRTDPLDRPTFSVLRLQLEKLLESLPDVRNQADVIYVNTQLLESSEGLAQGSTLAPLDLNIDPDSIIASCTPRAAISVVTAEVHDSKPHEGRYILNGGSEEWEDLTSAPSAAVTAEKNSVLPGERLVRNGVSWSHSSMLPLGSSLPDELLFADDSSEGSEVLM

Compared with DQNVEYKGTVS [FHL1_Y117_W122S], NHQFDYTFDWT [CSNK1A1_Y294_YF] is higher in phosphorylation enrichment: 0.452 for the first, 0.565 for the second.

First: PADCRYFAFPQ [GAMT_Y222_YF]
Second: HNLPIYEGYAL [ACTA1_Y168_V165L]
The phosphorylation enrichment of the first is lower: 5.65 for the first, 6.51 for the second.

First: EMFNPCFGLFE [NEDD4L_Y679_Y679C_YF]
Second: MSRNLYSGDYY [DDR2_Y736]
The phosphorylation enrichment of the first is lower: 0.554 for the first, 9.32 for the second.

First: PNAFIYVVQLP [L1CAM_Y420_A415P_YF]
Second: KLKEKYEKDIA [HMGB1_Y155]
The phosphorylation enrichment of the first is higher: 1.69 for the first, 0.663 for the second.

Compared with IFRASYFRKGG [ALK_Y1282_YF], LADKPYTFEYY [FXN_Y118_D122Y] is lower in phosphorylation enrichment: 0.706 for the first, 0.52 for the second.

Going from KHMADYPDCKY [SOX11_Y113_Y116C] to RHLLRYLSWTV [CLCNKB_Y93_S88R], the phosphorylation enrichment rises from 0.375 to 0.379.

Going from GKTFTYRSVFF [ZNF80_Y200] to AVRVFYRKCPR [EPHB2_Y194], the phosphorylation enrichment rises from 0.42 to 0.517.

Compared with QTEAPYRFIYM [PTPN11_Y511_Q510P], FSCLPYGRLAY [SLC52A2_Y305] is lower in phosphorylation enrichment: 1.4 for the first, 0.393 for the second.

Compared with RDWSLYFKIIE [KRT18_Y129_H128L], WNDLDYMDSRR [GAA_Y407] is higher in phosphorylation enrichment: 0.327 for the first, 0.371 for the second.

Compared with LFEDHYLLGTS [ASS1_Y87_R86H_YF], TGFRPYVCPFD [YY1_Y383_D380Y_YF] is higher in phosphorylation enrichment: 0.384 for the first, 0.849 for the second.

First: EKHGQYLIGHG [EPHB4_Y581_D576E]
Second: DRLASSLDKVR [KRT10_Y160_Y160S]
The phosphorylation enrichment of the first is higher: 0.46 for the first, 0.331 for the second.

Compared with KEKLCYVAPDF [ACTA1_Y220_L223P], VTQEPYELYCE [CBL_Y368_Q367P] is lower in phosphorylation enrichment: 0.656 for the first, 0.461 for the second.

Going from NLRQQYNSPQE [UMPS_Y432_G429R] to RSAGKYDVFLI [MECP2_Y120_YF], the phosphorylation enrichment rises from 0.293 to 0.561.

First: TFFQMYDKGLV [IARS2_Y231_YF]
Second: AFLQTYAHEVS [PCDHGA5_Y753_S754A]
The phosphorylation enrichment of the first is higher: 0.542 for the first, 0.503 for the second.

With AEDKPYAELWM [MPI_Y46] the phosphorylation enrichment was 1.4.

The sequences below were run on c-Abl (mouse) in the same assay as above.

Compared with DQNVEYKGTVS [FHL1_Y117_W122S], NHQFDYTFDWT [CSNK1A1_Y294_YF] is higher in phosphorylation enrichment: 0.624 for the first, 0.995 for the second.

First: PADCRYFAFPQ [GAMT_Y222_YF]
Second: HNLPIYEGYAL [ACTA1_Y168_V165L]
The phosphorylation enrichment of the first is lower: 0.752 for the first, 2.79 for the second.

Going from EMFNPCFGLFE [NEDD4L_Y679_Y679C_YF] to MSRNLYSGDYY [DDR2_Y736], the phosphorylation enrichment falls from 1.29 to 0.821.

First: PNAFIYVVQLP [L1CAM_Y420_A415P_YF]
Second: KLKEKYEKDIA [HMGB1_Y155]
The phosphorylation enrichment of the first is higher: 0.747 for the first, 0.647 for the second.

First: IFRASYFRKGG [ALK_Y1282_YF]
Second: LADKPYTFEYY [FXN_Y118_D122Y]
The phosphorylation enrichment of the first is lower: 0.721 for the first, 0.802 for the second.

Compared with KHMADYPDCKY [SOX11_Y113_Y116C], RHLLRYLSWTV [CLCNKB_Y93_S88R] is lower in phosphorylation enrichment: 1.36 for the first, 0.969 for the second.

Compared with GKTFTYRSVFF [ZNF80_Y200], AVRVFYRKCPR [EPHB2_Y194] is higher in phosphorylation enrichment: 0.693 for the first, 0.78 for the second.

Going from QTEAPYRFIYM [PTPN11_Y511_Q510P] to FSCLPYGRLAY [SLC52A2_Y305], the phosphorylation enrichment falls from 1.15 to 0.595.

First: RDWSLYFKIIE [KRT18_Y129_H128L]
Second: WNDLDYMDSRR [GAA_Y407]
The phosphorylation enrichment of the first is lower: 0.4 for the first, 0.864 for the second.

Going from LFEDHYLLGTS [ASS1_Y87_R86H_YF] to TGFRPYVCPFD [YY1_Y383_D380Y_YF], the phosphorylation enrichment rises from 0.662 to 1.29.

First: EKHGQYLIGHG [EPHB4_Y581_D576E]
Second: DRLASSLDKVR [KRT10_Y160_Y160S]
The phosphorylation enrichment of the first is higher: 0.543 for the first, 0.468 for the second.

Going from KEKLCYVAPDF [ACTA1_Y220_L223P] to VTQEPYELYCE [CBL_Y368_Q367P], the phosphorylation enrichment falls from 5.43 to 0.74.

Going from NLRQQYNSPQE [UMPS_Y432_G429R] to RSAGKYDVFLI [MECP2_Y120_YF], the phosphorylation enrichment rises from 0.354 to 0.85.

First: TFFQMYDKGLV [IARS2_Y231_YF]
Second: AFLQTYAHEVS [PCDHGA5_Y753_S754A]
The phosphorylation enrichment of the first is higher: 0.734 for the first, 0.693 for the second.

AEDKPYAELWM [MPI_Y46] gave a phosphorylation enrichment of 0.854.
